# In publication PMC8985213:
# Molecular target: BamD_(R49C) (E. coli) (UniProt P0AC02)
# Assay: cross-linking
substance,measurement,value
^MBP−76EspP_(D1218C),percent crosslinked (plateau after oxidation with 4-DPS),40%
same,"percent crosslinked spontaneously (Ox-, no oxidant)",10%
